The values below come from patent US20170129957A1 (BERGENBIO ASA, published 2017).

Experiment [1] has as its target T1, recombinant human Mer-Fc chimera (R&D Systems, Cat. no. 891-MR) (human, UniProt Q12866 21-499, limits assumed).
T1 construct: Bought soluble Fc chimera; also called rhMer-Fc; rhMer; Fc part of the bought chimera not given
T1 sequence (looked up): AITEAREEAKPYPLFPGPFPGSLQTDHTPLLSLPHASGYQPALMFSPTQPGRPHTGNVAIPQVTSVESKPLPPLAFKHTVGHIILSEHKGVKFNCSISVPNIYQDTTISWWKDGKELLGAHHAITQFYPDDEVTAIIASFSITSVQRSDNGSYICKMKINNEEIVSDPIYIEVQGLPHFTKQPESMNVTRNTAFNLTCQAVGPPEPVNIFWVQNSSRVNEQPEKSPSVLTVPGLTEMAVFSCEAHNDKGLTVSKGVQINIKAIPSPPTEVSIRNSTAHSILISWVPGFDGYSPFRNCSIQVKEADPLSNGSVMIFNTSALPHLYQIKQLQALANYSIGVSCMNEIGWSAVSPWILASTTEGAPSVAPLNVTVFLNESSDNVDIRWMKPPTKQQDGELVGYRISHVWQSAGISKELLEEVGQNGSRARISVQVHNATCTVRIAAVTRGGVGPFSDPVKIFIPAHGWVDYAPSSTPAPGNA
In words: SPR (Biacore 3000), rhMer-Fc immobilised on CM5 at 303.6 RU, MAb 1H12 injected.

Experiment [2] has as its target T2, recombinant human Axl-Fc chimera (R&D Systems, Cat. no. 154-AL) (human, UniProt P30530 26-451).
T2 construct: Bought reagent; also called rhAxl-Fc; rhAxl; not shown: human IgG1 Fc domain
T2 sequence: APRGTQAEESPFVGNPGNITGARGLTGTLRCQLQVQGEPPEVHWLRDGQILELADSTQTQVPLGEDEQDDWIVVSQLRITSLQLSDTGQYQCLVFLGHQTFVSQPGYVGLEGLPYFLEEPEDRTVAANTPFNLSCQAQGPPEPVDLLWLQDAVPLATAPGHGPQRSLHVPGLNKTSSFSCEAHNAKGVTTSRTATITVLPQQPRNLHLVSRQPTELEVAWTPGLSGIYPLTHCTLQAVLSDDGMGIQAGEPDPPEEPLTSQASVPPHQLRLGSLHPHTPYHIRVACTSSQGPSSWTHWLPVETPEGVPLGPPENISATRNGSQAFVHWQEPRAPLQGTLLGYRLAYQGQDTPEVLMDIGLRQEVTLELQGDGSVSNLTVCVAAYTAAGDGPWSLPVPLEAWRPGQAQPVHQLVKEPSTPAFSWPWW
Nature of the experiment: SPR (Biacore 3000, 25 °C), rhAxl-Fc immobilised at 190 RU, 1H12 1.3-666.7 nM, KD as koff/kon. For orientation: In SPR one partner is held on a chip, and binding of the other changes the refractive index at the surface.

Experiment [3] addresses T3, human Axl receptor of Axl+ human cell lines (MDA-MB-231, NCI-H1299, HeLa) (human, UniProt P30530 26-894).
T3 construct: also called Axl+ cells; Axl-positive cells
T3 sequence: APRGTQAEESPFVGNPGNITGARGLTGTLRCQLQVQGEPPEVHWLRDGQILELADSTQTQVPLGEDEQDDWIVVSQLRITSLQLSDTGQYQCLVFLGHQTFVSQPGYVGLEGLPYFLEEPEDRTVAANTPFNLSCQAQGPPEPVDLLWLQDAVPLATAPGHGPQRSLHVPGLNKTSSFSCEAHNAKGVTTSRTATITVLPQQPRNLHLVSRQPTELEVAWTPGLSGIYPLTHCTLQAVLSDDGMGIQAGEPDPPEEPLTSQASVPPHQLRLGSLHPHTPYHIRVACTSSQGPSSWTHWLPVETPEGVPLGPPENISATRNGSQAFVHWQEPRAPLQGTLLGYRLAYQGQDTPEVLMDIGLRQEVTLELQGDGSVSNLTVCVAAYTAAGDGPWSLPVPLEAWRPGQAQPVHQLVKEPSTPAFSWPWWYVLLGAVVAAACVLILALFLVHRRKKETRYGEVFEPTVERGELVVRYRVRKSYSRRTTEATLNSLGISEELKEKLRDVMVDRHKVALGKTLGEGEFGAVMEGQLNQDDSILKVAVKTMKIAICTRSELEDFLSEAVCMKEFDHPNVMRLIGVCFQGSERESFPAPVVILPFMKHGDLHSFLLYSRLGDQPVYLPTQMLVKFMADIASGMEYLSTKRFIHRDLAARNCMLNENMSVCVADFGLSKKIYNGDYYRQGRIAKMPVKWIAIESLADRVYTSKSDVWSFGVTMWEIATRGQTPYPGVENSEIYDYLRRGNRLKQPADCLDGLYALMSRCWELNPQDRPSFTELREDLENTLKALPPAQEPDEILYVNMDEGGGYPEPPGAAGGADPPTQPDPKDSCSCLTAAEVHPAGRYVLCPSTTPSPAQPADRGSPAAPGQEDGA
Nature of the experiment: flow cytometry on MDA-MB-231 cells, detection with APC-conjugated donkey anti-mouse IgG (H+L) F(ab')2. (In general: Flow cytometry measures light scatter and fluorescence of single cells or particles in a stream.)

For experiment [4], the target named is T2, recombinant human Axl-Fc chimera (R&D …). In words: SPR (Biacore 3000, 25 °C), calculated as ln2/koff.
Experiment [5] has the same target. Nature of the experiment: SPR (Biacore 3000), rhAxl-Fc immobilised on CM5 at 190 RU, MAb 1H12 at 1.3-666.7 nM, 25 °C, BIAevaluation fit [table under the sensorgrams].
Experiment [6] deals with T4, recombinant mouse Axl-Fc chimera (R&D Systems, Cat. no. 854-AX) (mouse, UniProt Q00993 19-443).
T4 construct: Bought soluble Fc chimera; also called rmAxl-Fc; rmAxl; Fc part of the bought chimera not given
T4 sequence: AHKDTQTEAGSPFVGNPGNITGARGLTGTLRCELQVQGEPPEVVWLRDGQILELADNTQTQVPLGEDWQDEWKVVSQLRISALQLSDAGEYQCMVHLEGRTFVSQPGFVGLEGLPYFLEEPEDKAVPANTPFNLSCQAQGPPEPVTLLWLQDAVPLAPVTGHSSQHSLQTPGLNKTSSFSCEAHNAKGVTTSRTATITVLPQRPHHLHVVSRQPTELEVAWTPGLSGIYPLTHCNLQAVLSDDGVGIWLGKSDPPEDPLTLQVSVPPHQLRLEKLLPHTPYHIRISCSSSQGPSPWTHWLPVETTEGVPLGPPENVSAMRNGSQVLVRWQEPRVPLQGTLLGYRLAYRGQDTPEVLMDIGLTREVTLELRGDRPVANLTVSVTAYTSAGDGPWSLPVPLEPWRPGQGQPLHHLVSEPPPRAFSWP
In words: SPR (Biacore 3000), rmAxl-Fc immobilised on CM5 at 2,115.9 RU, MAb 1H12 injected [upper panel 1H12].

In experiment [7] the target is T2, recombinant human Axl-Fc chimera (R&D …). In words: SPR (Biacore 3000, 25 °C), rhAxl-Fc immobilised at 190 RU, 1H12 1.3-666.7 nM.
The target in experiment [8] is T5, recombinant human Tyro3/Dtk-Fc chimera (R&D Systems, Cat. no. 859-DK) (human, UniProt Q06418 41-428).
T5 construct: Bought soluble Fc chimera; also called rhTyro3-Fc; rhTyro3; Fc part of the bought chimera not given
T5 sequence: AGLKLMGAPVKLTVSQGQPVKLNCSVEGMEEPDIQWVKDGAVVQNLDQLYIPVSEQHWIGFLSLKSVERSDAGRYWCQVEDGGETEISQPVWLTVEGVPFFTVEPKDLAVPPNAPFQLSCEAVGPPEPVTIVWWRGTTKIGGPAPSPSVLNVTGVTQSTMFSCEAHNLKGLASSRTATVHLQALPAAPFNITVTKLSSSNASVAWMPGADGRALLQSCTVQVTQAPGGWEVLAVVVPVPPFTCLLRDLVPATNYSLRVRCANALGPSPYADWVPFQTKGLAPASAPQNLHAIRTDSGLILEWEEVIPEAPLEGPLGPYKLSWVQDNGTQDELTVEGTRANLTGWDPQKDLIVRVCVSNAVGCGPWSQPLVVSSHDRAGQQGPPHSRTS
In words: SPR (Biacore 3000), rhTyro3/Dtk-Fc immobilised on CM5 at 364.0 RU, MAb 1H12 injected.

The target in experiment [9] is T2, recombinant human Axl-Fc chimera (R&D …). Nature of the experiment: SPR (Biacore 3000, 25 °C), rhAxl-Fc immobilised at 190 RU, ch1H12 1.3-666.7 nM, 1:1 Langmuir model.
Experiment [10] deals with T3, human Axl receptor of Axl+ human cell …. In words: flow cytometry on MDA-MB-231 cells, detection with APC-conjugated donkey anti-human IgG (H+L) F(ab')2.
In experiment [11] the target is T2, recombinant human Axl-Fc chimera (R&D …). In words: SPR (Biacore 3000), rhAxl-Fc immobilised on CM5 at 190 RU, ch1H12 at 1.3-666.7 nM, 25 °C, 1:1 Langmuir fit [table under the sensorgrams].
For experiment [12] the target is unchanged. In words: SPR (Biacore 3000, 25 °C), comparison of KD with parental murine 1H12.
For experiment [13] the target is unchanged. Nature of the experiment: SPR (Biacore 3000, 25 °C), rhAxl-Fc immobilised at 190 RU, ch1H12 1.3-666.7 nM, 1:1 Langmuir model, KD as koff/kon.

B1: mouse anti-Axl monoclonal antibody 1H12 (antibody, V domains shown)
VH: EVKLVESGGDLVKPGGSLKLSCAASGFTFSSYGMSWVRQTPDKRLEWVATISSGGSYTYYPDSVKGRFTISRDNAKNTLYLQMSSLKSEDTAMYYCARHPIYYTYDDTMDYWGQGTSVTVSS
VL: DIVLTQSPAIMAASPGEKVTMTCSASSSVSSGNFHWYQQKPGTSPKLWIYRTSNLASGVPARFSGSGSGTSYSLTISSMEAEDAATYYCQQWSGYPWTFGGGTKLEIK
notes: also called MAb 1H12; m 1H12
Usually Kd stands for the free concentration of one partner at which half of the binding sites on the other are occupied at equilibrium, for simple one-to-one binding. Usually EC50 (read off the curve) stands for the concentration needed to bring the measured effect to its halfway point. By kon is commonly meant the rate constant with which the complex forms. For orientation: koff means the first-order rate constant of dissociation. As to B1, the binding result in experiment [1], in [6] and in experiment [8] was “no binding (tested: 10 µg/mL)” throughout. The Kd in experiment [2] amounted to 0.0498 nM. For the same molecule, the “EC50 (read off the curve)” value in experiment [3] was ~0.9 nM. For the same molecule, in experiment [4], the “half-life of the 1H12/Axl complex” value was 18 h. The kon in [5] was found to be 214000 M⁻¹ s⁻¹. The koff in experiment [7] amounted to 1.07e-05 s⁻¹.

B2: chimeric (mouse variable/human constant IgG1) monoclonal antibody ch1H12 (antibody, V domains shown)
VH: EVKLVESGGDLVKPGGSLKLSCAASGFTFSSYGMSWVRQTPDKRLEWVATISSGGSYTYYPDSVKGRFTISRDNAKNTLYLQMSSLKSEDTAMYYCARHPIYYTYDDTMDYWGQGTSVTVSS
VL: DIVLTQSPAIMAASPGEKVTMTCSASSSVSSGNFHWYQQKPGTSPKLWIYRTSNLASGVPARFSGSGSGTSYSLTISSMEAEDAATYYCQQWSGYPWTFGGGTKLEIK
notes: also called chimeric MAb ch1H12; chimeric monoclonal antibody 1H12; not shown: constant domains of the human IgG1 heavy chain; human light chain constant domain (C-kappa)
B2: the koff in [9] stood at 2.99e-06 s⁻¹. Further, the “EC50 (read off the curve)” value in [10] is ~0.6 nM. For the same molecule, the “half-life of the ch1H12/Axl complex” value in [4] was 64.4 h. In addition, in [11], the kon is 271000 M⁻¹ s⁻¹. The “fold lower KD than the parental murine antibody 1H12” value in [12] amounted to 4.5 fold. For the same molecule, the Kd in experiment [13] worked out at 0.011 nM.
